The values that follow come from article PMC2258145, “Transcriptional Regulation of PIK3CA Oncogene by NF-κB in Ovarian Cancer Microenvironment”.

The target of the data set is NF-kB p50 (recombinant, Promega) (UniProt P19838 1-433). Briefly: EMSA; LightShift EMSA kit binding buffer, 1 ug poly(dI-dC), 30 fmol biotin probe, 20 ul, room temperature 20 min; 7.5% PAGE in 0.25x TBE; salt and pH not stated. As to conditions: protein: commercial; chain copies: 2; label: 5'-biotin; blunt. On the technique in general: A gel shift assay detects complexes by their altered migration in electrophoresis.
NF-kB p50 (recombinant, Promega), sequence (P19838 1-433): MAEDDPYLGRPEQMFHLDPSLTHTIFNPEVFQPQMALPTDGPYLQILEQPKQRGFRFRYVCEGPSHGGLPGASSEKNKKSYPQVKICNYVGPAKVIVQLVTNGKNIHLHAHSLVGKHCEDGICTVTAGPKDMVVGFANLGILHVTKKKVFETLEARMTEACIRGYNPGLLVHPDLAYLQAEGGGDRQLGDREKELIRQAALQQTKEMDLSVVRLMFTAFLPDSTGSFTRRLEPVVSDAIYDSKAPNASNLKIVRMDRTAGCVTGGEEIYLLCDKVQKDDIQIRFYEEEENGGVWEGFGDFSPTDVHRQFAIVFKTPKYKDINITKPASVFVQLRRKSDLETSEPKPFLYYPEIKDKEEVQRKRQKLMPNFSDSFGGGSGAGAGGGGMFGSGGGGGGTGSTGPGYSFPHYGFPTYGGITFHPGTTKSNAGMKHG

B1: wt huPIK3CA NF-kB probe (dsDNA)
DNA 1: GACGTGGGGGATTTTTCGCGTA
DNA 2: TACGCGAAAAATCCCCCACGTC
B1: the binding result is on record as “binds”.
